This is an account of results in the RNAGym collection of RNA variant scans (doi:10.1073/pnas.2313332121).

Fewer inactive variants are shown than the library holds.

The chains are these.
B1: TPR 5TU (parent)
chain: GGAUCUUCUCGAUCUAACAAAAAAGACAAAUCUGCCACAAAGCUUGAGAGCAUCUUCGGAUGCAGAGGCGGCAGCCUUCGGUGGCGCGAUAGCGCCAACGUUCUCAACUAUGACACGCAAAACGCGUGCUCCGUUGAAUGGAGUUUAUCAUG

In the data set the parent is B1. In words: polymerase ribozyme fitness, log enrichment relative to wild type (log ratio); higher = more active; in vitro selection for triplet polymerase activity. In short, it runs like this: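 For each subunit of a heterodimeric triplet polymerase ribozyme, a mutant library was built by PCR and transcribed, then taken through a single in vitro selection round in triplicate. Selection involved annealing to a biotinylated primer, the partner subunit and triplets, incubation frozen at −7 °C, gel excision of extended constructs, capture on streptavidin beads and RT-PCR. Genotypes were retained after Illumina sequencing of inputs and outputs only with ≥10 input reads and ≥1 read in each output. Fitness is defined as the logarithm of a genotype's enrichment relative to wild-type enrichment, using inverse-variance-weighted averages across replicates, with the logarithm taken to base 2.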
As to A22U G46C A73U, the “polymerase ribozyme fitness (log ratio)” value was -3.61.

Consider C87G G94C C132G, for which the “polymerase ribozyme fitness (log ratio)” value was not above -4.2. With U56G G68U G81A G84A A91C U135C, the “polymerase ribozyme fitness (log ratio)” value was not above -4.2. Consider A19U C96A, for which the “polymerase ribozyme fitness (log ratio)” value is -0.531. Take U15G A17U C79G G80A G81U G92A G124A A147U: the “polymerase ribozyme fitness (log ratio)” value was not above -4.2.

Consider A60U U127G, for which the “polymerase ribozyme fitness (log ratio)” value was -3.08. C69A G83A A121C: the “polymerase ribozyme fitness (log ratio)” value is -1.84.

In the case of A29U U53G G81A G88C, the “polymerase ribozyme fitness (log ratio)” value was not above -4.2. Regarding A89U A121U, the “polymerase ribozyme fitness (log ratio)” value was -0.72. With G50C U102G, the “polymerase ribozyme fitness (log ratio)” value was -3.32. In the case of A17U A110U, the “polymerase ribozyme fitness (log ratio)” value was not above -4.2. On to C18U U31C U56G A138U G140A, for which the “polymerase ribozyme fitness (log ratio)” value was -4. In the case of C32U G42U C79G C129A A138G U146C, the “polymerase ribozyme fitness (log ratio)” value was not above -4.2. Regarding U45G U53A C75A C93A A113G, the “polymerase ribozyme fitness (log ratio)” value was not above -4.2. Regarding C38G U56A G94A A121G, the “polymerase ribozyme fitness (log ratio)” value is -1.64. Next, A73G C87A: -4.18; A23G G48U G65C C72U G81C G83U: not above -4.2. For G92C U135G A142U, the “polymerase ribozyme fitness (log ratio)” value is -4.1. With U9G A40C, the “polymerase ribozyme fitness (log ratio)” value was -3.48. As for U4A A41C G126C, the “polymerase ribozyme fitness (log ratio)” value was -1.9. Next, A26U G68C G86U C103G A115C: not above -4.2. The same measure for A12G G92C G133U: -3.59; for C54A C93U: -2.59; for A12C C125U: -0.492. The same measure for G42U U44A C85A C96G A115C C129A: not above -4.2. A28U A37C C79U C87U: the “polymerase ribozyme fitness (log ratio)” value was -3.89. For A29C U53A A73C G84C C103G A107U U134G, the “polymerase ribozyme fitness (log ratio)” value was not above -4.2.

On to A29U A30U A37U A47G G50C A97U G100U A106C, for which the “polymerase ribozyme fitness (log ratio)” value is not above -4.2. In the case of U53A G140C, the “polymerase ribozyme fitness (log ratio)” value is -3.65.

With U53G G80C, the “polymerase ribozyme fitness (log ratio)” value was -4.15. As for A39G C54G C57A, the “polymerase ribozyme fitness (log ratio)” value was -3.22. For the variant C57U G58C A142C, the “polymerase ribozyme fitness (log ratio)” value was determined as 0.768. For the variant A73G C87G U146G, the “polymerase ribozyme fitness (log ratio)” value is not above -4.2.

For A52G G86U C96G U144C U151C, the “polymerase ribozyme fitness (log ratio)” value is not above -4.2. On to G48A U61A A91C C131A U139C, for which the “polymerase ribozyme fitness (log ratio)” value is not above -4.2.

Take G83C C118G: the “polymerase ribozyme fitness (log ratio)” value is -0.968. With C69U G94A A122G U135A U146G, the “polymerase ribozyme fitness (log ratio)” value is -2.95. Next, A47U U61A C75A C76U G88U: not above -4.2; A16G A20U C99U U102G: not above -4.2. For the variant C69A A119U, the “polymerase ribozyme fitness (log ratio)” value is -2.7. Take A16G U33G G81A C87G G100A: the “polymerase ribozyme fitness (log ratio)” value was not above -4.2. For U15G C69A C96U, the “polymerase ribozyme fitness (log ratio)” value was -1.09.

Turning to A52U C116A, the “polymerase ribozyme fitness (log ratio)” value is 0.243.

A39C C75U G83A: the “polymerase ribozyme fitness (log ratio)” value was not above -4.2. A52C G58A A147U: the “polymerase ribozyme fitness (log ratio)” value was -0.233.

With U77G C93U G117C, the “polymerase ribozyme fitness (log ratio)” value was not above -4.2. On to C8G U13C A16G A52G G83A U101G G126A, for which the “polymerase ribozyme fitness (log ratio)” value is not above -4.2. Take U61C C96A: the “polymerase ribozyme fitness (log ratio)” value is -3.31. In the case of C8U A66C C93U G124A, the “polymerase ribozyme fitness (log ratio)” value was not above -4.2. Consider G50U C85A, for which the “polymerase ribozyme fitness (log ratio)” value is -1.4. For U31C U101C G124A, the “polymerase ribozyme fitness (log ratio)” value is 1.05. Take U55A A97U: the “polymerase ribozyme fitness (log ratio)” value is -0.916. With G84U U90A C108A, the “polymerase ribozyme fitness (log ratio)” value is not above -4.2. Regarding A17U U44A C54G U55G G62C C87A C99U A150G G152C, the “polymerase ribozyme fitness (log ratio)” value was not above -4.2.

For the variant A20U A30U A37U C51G C93U C95A C96G C116G, the “polymerase ribozyme fitness (log ratio)” value is not above -4.2. Turning to A60U G136C U139G, the “polymerase ribozyme fitness (log ratio)” value was -3.71. Consider A41C U56A C85A G117A G140A, for which the “polymerase ribozyme fitness (log ratio)” value was not above -4.2. U9A A39C U53G G92A G112C A113G C149G: the “polymerase ribozyme fitness (log ratio)” value is not above -4.2. Consider A3G G50C A120G C129A, for which the “polymerase ribozyme fitness (log ratio)” value is not above -4.2. The same measure for C36U C95U: -1.98; for G84U A89G: -3.82; for U55A G124U U139G: 0.0477. For the variant A29C C54A G70U, the “polymerase ribozyme fitness (log ratio)” value was not above -4.2. The same measure for U15C A19C A91U: -3.68; for A39G G42A: -3.64.

Take C57G C114U: the “polymerase ribozyme fitness (log ratio)” value is -1.83. As for A16U A20C A91U G141U, the “polymerase ribozyme fitness (log ratio)” value is not above -4.2. Take G42A G59A: the “polymerase ribozyme fitness (log ratio)” value is -4.11. Next, A40C U56A C57U G140C: -3.75.

With G81U C85U A115C G136C, the “polymerase ribozyme fitness (log ratio)” value is -3.36.

For A23U G42C C54U C76A C93A U127C G133C, the “polymerase ribozyme fitness (log ratio)” value was not above -4.2. Next, C85U U134A: -3.04; U6G G34C A52U A89G C93A A107U A115U A150C: not above -4.2. With A3G C14U G42C G59A C96U A122U U146C, the “polymerase ribozyme fitness (log ratio)” value is not above -4.2. The same measure for C8G G92C: -3.1. Consider G42C U45A A52C U77G C85A C116G, for which the “polymerase ribozyme fitness (log ratio)” value is not above -4.2. On to C85U G133U, for which the “polymerase ribozyme fitness (log ratio)” value is -2.28. The same measure for U7G A26C U31G U55A G86C G126U: not above -4.2; for U53A A60U C63U C75U U77G C93G A122G C149G U151A: not above -4.2; for A21U U53A C57U G83A C95U: -4.06. Consider G70C C96U G100A C118G A120C, for which the “polymerase ribozyme fitness (log ratio)” value was not above -4.2. The same measure for U4A C18U A64C G68A C79G: not above -4.2; for U9C A47U: -3.94.

As to A16U G58U C69U U78G G80C C96A G141U, the “polymerase ribozyme fitness (log ratio)” value is not above -4.2.
